This data set is described as follows: protein stability index of a GFP-peptide fusion (GPS, HEK-293T) (PSI 1-6); higher = more stable. The conditions noted are these: c terminus: a fixed tail appended.

± gives the standard deviation.
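Note: 24-mer peptide tiles fused after GFP, lentivirally expressed, FACS-sorted into six equal bins by GFP/DsRed ratio, decoded by Illumina sequencing, PSI is the read-weighted mean bin number.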

Regarding PRIIKAAPSCAIMISTYEFGKSFF [SLC25A39], the protein stability index turned out to be 2.56 ± 0.49 (treatment: DMSO) and 2.28 ± 0.32 (treatment: MLN4924 1 uM, 8 h).
In the case of PRSGEQAEGSPGGPGDSQGRKRRQ [CDKN1A], the protein stability index stood at 5.56 ± 0.16 (treatment: DMSO) and 5.48 ± 0.27 (treatment: MLN4924 1 uM, 8 h).
Sequence PSHGSLSHSKAPSGSQMSHNAVTS [NCF4] came in with a protein stability index (treatment: DMSO) of 4.55 ± 0.1 and a protein stability index (treatment: MLN4924 1 uM, 8 h) of 4.83 ± 0.37.
For PSHHPTDPVELRRLNFQTPGMASH [PTPRD], in that order: 3.79 ± 0.13 and 3.94 ± 0.34.
Turning to PSHLLLPPDTVSRTGLEKAAAGAV [SPDEF], the protein stability index stood at 4.22 ± 0.33 (treatment: DMSO) and 4.26 ± 0.35 (treatment: MLN4924 1 uM, 8 h).
PSLEDLFDLCDRTFSLKTVLMIAI [CSNK1G3]: the protein stability index (treatment: DMSO) was found to be 2.5 ± 0.42 and the protein stability index (treatment: MLN4924 1 uM, 8 h) amounted to 2.38 ± 0.43.
For PSRYAAIYNGGVEAVSTLLGAVAV [SLC19A2], in that order: 2.28 ± 0.15 and 2.06 ± 0.37.
For PTEGQGSLLTNWPSVPPTIKEEEN [MYBL2], in that order: 5.46 ± 0.23 and 5.42 ± 0.18.
Taken in the same sequence, the figures for PTGDVLLDEALKHVKETQPPETVQ [GOLPH3] were 5.32 ± 0.1 and 5.21 ± 0.1.
As for PWAVDPAFAERYAPDKTSTVLTRH [PDLIM7], the protein stability index (treatment: DMSO) turned out to be 3.57 ± 0.24 and the protein stability index (treatment: MLN4924 1 uM, 8 h) amounted to 3.56 ± 0.25.
For PYHVDSLLQLSDACRFQEDQEMAR [TCF25], in that order: 4.36 ± 0.17 and 4.04 ± 0.21.
Taken in the same sequence, the figures for PYKKPYMETSPSEEDSFYRSSYPQ [TBX5] were 3.91 ± 0.47 and 3.65 ± 0.41.
For QADLELDYNPPRVQLSDEMFVFQD [CBY2], in that order: 4.65 ± 0.28 and 4.83 ± 0.21.
Regarding QADLLAHLVPEPDRLEEQLPWLSL [DNAAF3], the protein stability index runs as follows: (treatment: DMSO) 2.34 ± 0.25; (treatment: MLN4924 1 uM, 8 h) 2.48 ± 0.28.
In turn, QARLLNPSATRAKPGPQDTVERPF [NOP53] yielded a protein stability index (treatment: DMSO) of 4.78 ± 0.24 and a protein stability index (treatment: MLN4924 1 uM, 8 h) of 4.85 ± 0.14.
Turning to QCPEPPIVVHCSAGIGRTGTFCSL [PTPN9], the protein stability index (treatment: DMSO) stood at 2.17 ± 0.26 and the protein stability index (treatment: MLN4924 1 uM, 8 h) stood at 2.14 ± 0.12.
For QDKSESLSDNATAFSNRSKQLRRQ [VAMP4], the protein stability index stood at 5.36 ± 0.4 (treatment: DMSO) and 5.17 ± 0.21 (treatment: MLN4924 1 uM, 8 h).
For QEELTRINQSFTGAERKAALCELL [IQUB], in that order: 3.41 ± 0.28 and 3.63 ± 0.17.
Regarding QEKKILELEKLAEKNIILEEKIQV [MTUS2], the protein stability index came to 4.3 ± 0.28 (treatment: DMSO) and 4.29 ± 0.17 (treatment: MLN4924 1 uM, 8 h).
For QELSEVLELLSAPELKSLAKTFHL [FAN1], the protein stability index turned out to be 2.26 ± 0.46 (treatment: DMSO) and 2.25 ± 0.14 (treatment: MLN4924 1 uM, 8 h).
Taken in the same sequence, the figures for QEQLSLSQRQAKELKLEQQEAAER [LRRC45] were 5.5 ± 0.19 and 5.67 ± 0.22.
Taken in the same sequence, the figures for QFILRVSPDLEWHAACLKCAECSQ [ISL2] were 2.16 ± 0.34 and 2.19 ± 0.34.
For QGFRTVLELVINYQQLCIYWTKYY [OAS1], in that order: 2.96 ± 0.33 and 2.79 ± 0.51.
Regarding QGLIGSVEEQLAQLRCEMEQQNQE [KRT17], the protein stability index was found to be 5.3 ± 0.36 (treatment: DMSO) and 5.29 ± 0.34 (treatment: MLN4924 1 uM, 8 h).
Taken in the same sequence, the figures for QGLKLYAVEISDHPGEHEVGEPEF [CPXM2] were 4.5 ± 0.55 and 5.11 ± 0.06.
Taken in the same sequence, the figures for QGPISTKELADFIRERATIEETYS [FCHO1] were 3.13 ± 0.21 and 3.26 ± 0.32.
With QILYESCPKYKFISCPTCRRETVL [RNF208], the protein stability index is 2.15 ± 0.32 (treatment: DMSO) and 2.23 ± 0.28 (treatment: MLN4924 1 uM, 8 h).
For QLFFFHLFVGVDCFLLTAMAYDQF [OR3A1], in that order: 3.13 ± 0.23 and 3.41 ± 0.16.
For QLFSQIGPCKNCKMIMDTAGNDPY [TIA1], in that order: 2.32 ± 0.1 and 2.45 ± 0.28.
On to QLHIFNTLRSHLIDKGMLTSTTED [CDS2], for which the protein stability index was 2.93 ± 0.2 (treatment: DMSO) and 3.09 ± 0.26 (treatment: MLN4924 1 uM, 8 h).
For QLIDPDENKENEAFEFKKPVRPVS [CDC25A], in that order: 3.59 ± 0.41 and 4.03 ± 0.27.
Taken in the same sequence, the figures for QLIGSSNLFVMQVEMDIYTALKKW [GMCL1] were 2.57 ± 0.61 and 2.28 ± 0.81.
Taken in the same sequence, the figures for QLLADEKMKQLTEETEVLAHEIER [TRIM35] were 5.09 ± 0.46 and 5.21 ± 0.21.
Regarding QMLWELVLLGEPLVVMAPSPSESS [DENND6A], the protein stability index by setting is: (treatment: DMSO) 2.33 ± 0.72; (treatment: MLN4924 1 uM, 8 h) 2.17 ± 0.49.
For QNLLREKIMKLPLPESLKAYLTYF [PCMTD1], in that order: 2.49 ± 0.53 and 2.12 ± 0.36.
Taken in the same sequence, the figures for QPCSIVDVEFLPVYHPSPEESRDP [LPCAT4] were 4.84 ± 0.28 and 4.88 ± 0.38.
Regarding QQPGQDALAVKAGHGYDSKKQQEL [ZBED1], the protein stability index (treatment: DMSO) is 5.35 ± 0.22 and the protein stability index (treatment: MLN4924 1 uM, 8 h) stood at 5.21 ± 0.19.
Taken in the same sequence, the figures for QRCQKCSWSQYEMPEFSSDSTMRI [RTP4] were 2.36 ± 0.18 and 2.42 ± 0.16.
For QRGHYRVARILIDLCSDVNVCSLL [RIPK4], in that order: 2.9 ± 0.7 and 2.69 ± 0.28.
QSLAQPLPGNTTEATPRSLRASGS yielded a protein stability index (treatment: DMSO) of 4.93 ± 0.33 and a protein stability index (treatment: MLN4924 1 uM, 8 h) of 5.13 ± 0.18.
For QTESALSKKLRAILPKQSRKSMLD [LCOR], in that order: 3.05 ± 0.098 and 3.14 ± 0.2.
Consider QTLSPDMQGAYCTFPASVLAPVPT [DUSP5], for which the protein stability index reads like this: (treatment: DMSO) 3.51 ± 0.32; (treatment: MLN4924 1 uM, 8 h) 3.51 ± 0.21.
In the case of QTMAGSSPNTPQPVPEQSALCQGL [FAM104A], the protein stability index was found to be 4.75 ± 0.19 (treatment: DMSO) and 4.84 ± 0.17 (treatment: MLN4924 1 uM, 8 h).
With QTQTVAAQAQALAAQAAAAAHAAQ [PI4K2A], the protein stability index reads like this: (treatment: DMSO) 4.33 ± 0.22; (treatment: MLN4924 1 uM, 8 h) 4.42 ± 0.19.
QVEKNKYDASAIDFSRCDMDGATL [ELF3]: the protein stability index runs as follows: (treatment: DMSO) 4.63 ± 0.23; (treatment: MLN4924 1 uM, 8 h) 4.58 ± 0.14.
As for QVLRFYAIWDDTDSMYGECRTYII [EFHC1], the protein stability index is, setting by setting: (treatment: DMSO) 2.91 ± 1; (treatment: MLN4924 1 uM, 8 h) 2.58 ± 0.47.
Turning to QVQSMVVGEVLKDIETACKLLNIT [SPDEF], the protein stability index runs as follows: (treatment: DMSO) 2.42 ± 0.36; (treatment: MLN4924 1 uM, 8 h) 2.39 ± 0.35.
In the case of RAGGWVSGEEFYMLTRRVLQLETV [PKD2L1], the protein stability index came to 1.98 ± 0.14 (treatment: DMSO) and 2.5 ± 0.35 (treatment: MLN4924 1 uM, 8 h).
Taken in the same sequence, the figures for RASRTYELQNQLAACTRALESSEE [FSD1] were 5.01 ± 0.2 and 4.92 ± 0.26.
For RDAAGKPQRPRSAPRTSSCAERLQ [FCHO1], in that order: 4.75 ± 0.15 and 4.68 ± 0.098.
On to RDVKKTGFVFGTTLIMLLSLAAFS [RTN3], for which the protein stability index reads like this: (treatment: DMSO) 3.03 ± 0.43; (treatment: MLN4924 1 uM, 8 h) 3.19 ± 0.39.
REDILSCYDVYSPDKEEQLPFGPF [PKD2L1]: the protein stability index by setting is: (treatment: DMSO) 4.09 ± 0.17; (treatment: MLN4924 1 uM, 8 h) 3.93 ± 0.23.
Turning to RESERRNHSLARHADILAAVETRL [FBXO28], the protein stability index (treatment: DMSO) turned out to be 3.71 ± 0.15 and the protein stability index (treatment: MLN4924 1 uM, 8 h) turned out to be 3.9 ± 0.27.
Taken in the same sequence, the figures for RFLLYTNENPNNFQILLLSDPSTI [PNLIPRP1] were 2.94 ± 1 and 2.57 ± 0.61.
For RGDGGIYIGSIMKGGAVAADGRIE [DVL3], the protein stability index reads like this: (treatment: DMSO) 3.65 ± 0.18; (treatment: MLN4924 1 uM, 8 h) 3.75 ± 0.21.
Taken in the same sequence, the figures for RGKRGYSRGLHAWEISWPLEQRGT [SPSB2] were 2.88 ± 0.087 and 3.03 ± 0.41.
With RGYPPPRDSYSSSSRGAPRGGGRG [RBMX], the protein stability index turned out to be 5.12 ± 0.36 (treatment: DMSO) and 5.3 ± 0.23 (treatment: MLN4924 1 uM, 8 h).
For RHDGYATNDGNHPSCQETRDYAPP [RBMY1A1], in that order: 5 ± 0.31 and 4.93 ± 0.084.
Taken in the same sequence, the figures for RHRLITQVYLSHTAWTEACQVEVR [INTS4] were 2.37 ± 0.15 and 2.43 ± 0.51.
For RIIYMLLITIATFQIAANLSMERY [SLC19A2], in that order: 3.32 ± 0.31 and 2.91 ± 0.12.
For the sequence RKLSSAVRSGIVEYLSLVKGGQDV [PRIM1], the protein stability index was determined as 2.68 ± 0.36 (treatment: DMSO) and 2.77 ± 0.36 (treatment: MLN4924 1 uM, 8 h).
Taken in the same sequence, the figures for RKPVEAESVEGVVRILLEHYYKEN [INTS4] were 2.35 ± 0.27 and 2.41 ± 0.5.
Taken in the same sequence, the figures for RKRKQSGHSPARAGKQRMKEKEQE [DDIT3] were 5.15 ± 0.34 and 5.51 ± 0.38.
Taken in the same sequence, the figures for RLRLQRTGGLGGERERQPCGDGNT [SOAT2] were 4.59 ± 0.099 and 4.49 ± 0.14.
Consider RMNDLHYLNLDTWEWNELIPQGIC [KLHDC2], for which the protein stability index runs as follows: (treatment: DMSO) 2.3 ± 0.58; (treatment: MLN4924 1 uM, 8 h) 2.31 ± 0.24.
For RNQCRYCRLKKCFRAGMKKEAVQN [HNF4A], in that order: 2.9 ± 0.33 and 3.19 ± 0.45.
Turning to RNQKGEQVFRLAFRSGALDLDSCS [MYORG], the protein stability index (treatment: DMSO) was found to be 2.42 ± 0.33 and the protein stability index (treatment: MLN4924 1 uM, 8 h) amounted to 2.48 ± 0.4.
With RPLLQYVQDMGQEDMLLPLAWRIV [CCNC], the protein stability index came to 2.44 ± 0.17 (treatment: DMSO) and 2.24 ± 0.31 (treatment: MLN4924 1 uM, 8 h).
In the case of RPTPQDWLHRRAQILEILRRRPWA [ADAMTS4], the protein stability index by setting is: (treatment: DMSO) 2.63 ± 0.13; (treatment: MLN4924 1 uM, 8 h) 3.1 ± 0.48.
As for RQLEIMGKEVSGDQIEDMFEQGKW [STX11], the protein stability index was 3.73 ± 0.13 (treatment: DMSO) and 3.56 ± 0.2 (treatment: MLN4924 1 uM, 8 h).
On to RQLYAVNRRLRALEEQGATWRHRE [FATE1], for which the protein stability index is, setting by setting: (treatment: DMSO) 3.52 ± 0.3; (treatment: MLN4924 1 uM, 8 h) 3.56 ± 0.15.
Consider RQTVPPLTVRLHTQSVSECITEDG [PWWP2B], for which the protein stability index by setting is: (treatment: DMSO) 4.94 ± 0.11; (treatment: MLN4924 1 uM, 8 h) 4.7 ± 0.22.
Regarding RRERELERRELAVEQGERALERRR [ZBED3], the protein stability index by setting is: (treatment: DMSO) 5.03 ± 0.44; (treatment: MLN4924 1 uM, 8 h) 5.18 ± 0.63.
